The target in series [1] is T1, RelE1 toxin of Mycobacterium tuberculosis (crystallization construct, expressed as His-SUMO–RelE1) (Mycobacterium tuberculosis, UniProt O50461 1-97).
T1 sequence: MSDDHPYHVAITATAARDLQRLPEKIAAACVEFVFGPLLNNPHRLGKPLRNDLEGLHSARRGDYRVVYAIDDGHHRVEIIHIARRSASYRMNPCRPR
Put plainly: crystal structure. The following applies: both partners purified.

The series “crystal structure” deals with the molecule itself. Kind of series: crystal structure.

B1: RelB1 antitoxin of Mycobacterium tuberculosis (crystallization construct) (natural protein)
chain: MAVVPLGEVRNRLSEYVAEVELTHERITITRHGHPAAVLISADDLASIEETLEVLRTPGASEAIREGLADVAAGRFVSNDEIRNRYTAR
For the molecule B1, the binding result (in series [1]; in “crystal structure”) was “binds” each time.

Source of the values: publication PMC12620021 (Nucleic Acids Research, 2025).
